Results published in patent US12534531 (MacroGenics, dated 2026).

Tests used:
[1] = biological target: T1, biotinylated-soluble human LAG-3-Fc fusion protein (human, UniProt P18627 23-450, biotinylated (site not stated)); experiment: FACS: inhibition of shLAG-3-Fc binding to MHC II on Daudi cells (column head prints EC50); SM; SD 0.1900
T1 construct: whole entry named; also called shLAG-3; shLAG-3-Fc; not shown: Fc
T1 sequence: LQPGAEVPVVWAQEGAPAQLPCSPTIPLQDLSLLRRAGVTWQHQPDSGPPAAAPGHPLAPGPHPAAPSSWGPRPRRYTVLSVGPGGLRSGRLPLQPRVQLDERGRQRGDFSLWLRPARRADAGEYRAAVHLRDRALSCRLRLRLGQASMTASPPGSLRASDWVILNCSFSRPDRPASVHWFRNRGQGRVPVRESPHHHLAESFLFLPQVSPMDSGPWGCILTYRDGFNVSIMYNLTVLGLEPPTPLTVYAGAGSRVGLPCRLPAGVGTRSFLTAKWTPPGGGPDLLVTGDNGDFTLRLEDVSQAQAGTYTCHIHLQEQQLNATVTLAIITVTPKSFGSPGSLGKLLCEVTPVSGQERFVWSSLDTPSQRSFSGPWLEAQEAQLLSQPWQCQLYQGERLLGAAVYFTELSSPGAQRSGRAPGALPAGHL

[2] = biological target: T2, human LAG-3 expressed on NSO cells (human, UniProt P18627 29-525); experiment: FACS saturation binding to NSO cells expressing LAG-3; SM; SD 0.1376
T2 sequence: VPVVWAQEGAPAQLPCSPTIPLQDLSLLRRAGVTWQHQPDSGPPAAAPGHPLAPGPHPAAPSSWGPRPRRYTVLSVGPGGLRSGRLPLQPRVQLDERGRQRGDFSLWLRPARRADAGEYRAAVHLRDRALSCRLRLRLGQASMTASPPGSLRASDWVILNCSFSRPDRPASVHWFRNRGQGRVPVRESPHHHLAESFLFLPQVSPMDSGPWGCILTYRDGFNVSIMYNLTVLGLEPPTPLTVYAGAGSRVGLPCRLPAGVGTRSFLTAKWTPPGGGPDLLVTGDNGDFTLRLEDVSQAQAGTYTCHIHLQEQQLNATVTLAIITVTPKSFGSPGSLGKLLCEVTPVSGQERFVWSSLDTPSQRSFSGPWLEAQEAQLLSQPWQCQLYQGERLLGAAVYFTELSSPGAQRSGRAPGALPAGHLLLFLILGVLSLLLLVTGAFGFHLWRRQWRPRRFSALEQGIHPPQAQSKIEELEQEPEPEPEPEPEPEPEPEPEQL

[3] = biological target: T2, human LAG-3 expressed on NSO cells; experiment: FACS saturation binding to NSO cells expressing LAG-3; SM; SD 0.1660
[4] = biological target: T1, biotinylated-soluble human LAG-3-Fc …; experiment: FACS: inhibition of shLAG-3-Fc binding to MHC II on Daudi cells (column head prints EC50); SM; SD 0.3407
[5] = biological target: T1, biotinylated-soluble human LAG-3-Fc …; experiment: FACS: inhibition of shLAG-3-Fc binding to MHC II on Daudi cells (column head prints EC50); SM; SD 0.1409
[6] = biological target: T2, human LAG-3 expressed on NSO cells; experiment: FACS saturation binding to NSO cells expressing LAG-3; SM; SD 0.3430

B1: LAG-3 mAb A IgG4 (P) (antibody, V domains shown)
VH: QVQLQQWGAGLLKPSETLSLTCAVYGGSFSDYYWNWIRQPPGKGLEWIGEINHNGNTNSNPSLKSRVTLSLDTSKNQFSLKLRSVTAADTAVYYCAFGYSDYEYNWFDPWGQGTLVTVSS
VL: EIVLTQSPATLSLSPGERATLSCRASQSISSYLAWYQQKPGQAPRLLIYDASNRATGIPARFSGSGSGTDFTLTISSLEPEDFAVYYCQQRSNWPLTFGQGTNLEIK
notes: IgG4 (P); also called 25F7
[1]
  IC50: 701 nM
[2]
  EC50: 597 nM

B2: LAG-3 mAb A IgG1 (AA) (antibody, V domains shown)
VH: QVQLQQWGAGLLKPSETLSLTCAVYGGSFSDYYWNWIRQPPGKGLEWIGEINHNGNTNSNPSLKSRVTLSLDTSKNQFSLKLRSVTAADTAVYYCAFGYSDYEYNWFDPWGQGTLVTVSS
VL: EIVLTQSPATLSLSPGERATLSCRASQSISSYLAWYQQKPGQAPRLLIYDASNRATGIPARFSGSGSGTDFTLTISSLEPEDFAVYYCQQRSNWPLTFGQGTNLEIK
notes: IgG1 (AA)
[3]
  EC50: 452 nM
[4]
  IC50: 592 nM

B3: hLAG-3 mAb 1 (1.4) IgG1 (AA) (antibody, V domains shown)
VH: QVQLVQSGAEVKKPGASVKVSCKASGYTFTNYGMNWVRQAPGQGLEWMGWINTYTGESTYADDFEGRFVFSMDTSASTAYLQISSLKAEDTAVYYCARESLYDYYSMDYWGQGTTVTVSS
VL: DIVMTQTPLSLSVTPGQPASISCKSSQSLLHSDAKTYLNWLLQKPGQPPERLIYLVSELDSGVPDRFSGSGSGTDFTLKISRVEAEDVGVYYCWQGTHFPYTFGGGTKVEIK
[5]
  IC50: 364 nM
[6]
  EC50: 607 nM
